The values below come from publication PMC4310620.

What all share (assay): purified protein
Format in all cases: biochemical, Chromohalobacter israelensis

Substrate in data set [1]: C[C@H](N)CO
As to conditions: 50 mM L-glutamate, 5 mM ATP, 15 mM MgCl2, pH 7.9, 25 °C.

Substrate in data set [2]: NCCO
Particulars: 50 mM L-glutamate, 5 mM ATP, 15 mM MgCl2, pH 7.9, 25 °C.

Substrate in data set [3]: N[C@@H](CCC(=O)O)C(=O)O
As to conditions: 20 mM ethanolamine, 5 mM ATP, 15 mM MgCl2, pH 7.9, 25 °C.

As a reminder, the Km is the substrate concentration at which the rate is half of its maximum. A word on the kcat: it is the number of substrate molecules converted per active site and unit of time at saturation. Usually kcat/Km stands for the second-order rate constant that governs catalysis at low substrate concentration.

B1: Csal_0679 (Chromohalobacter israelensis DSM 3043) (protein)
chain: MTNTLALDDLKTRVESGEIDTVLVCIVDMQGRLMGKRLHARHFVDHGWEETHCCNYLLATDLEMATPGGYASTSWQAGYGDYIMKPDLATLRCVPWLEGTAMVLCDLLDHRTHAEVPHAPRAILKRQLARLEAMGLEAIMATELEFFLFEKSLDEIRKGRFRDLQPISGYNEDYHIFQTTKEEHVLRPLRNHLHAAGIPVEGTKGEAGAGQEELNIRCAKALDTADYHTIAKHATKEIAWQQGRAVTFLSKWHHAHAGSSSHIHQSLWKQGLPAFHDERDALGMSALMKHYLAGLLKYAPDYTYFLAPYLNSYKRFQKGTFAPTRTVWSVDNRTAGFRLCAEGTRAVRIECRIGGSDLNPYLAMAGQLAAGIKGIEECLALPPPAEGDTYEGGSGLIPQNLRDAMEALRGSTMLREAMGEDVVDHYVRAAEVELEDFQRVVSDYEVARGFERC
For B1, in data set [1], the Michaelis-Menten constant (Km) came out at 100 ± 10 µM, the kcat worked out at 0.35 ± 0.01 s⁻¹ and the kcat/Km came to 3400 M⁻¹ s⁻¹. In data set [2], the Km is 34 ± 4 µM, the kcat amounted to 0.38 ± 0.009 s⁻¹ and the kcat/Km was 11000 M⁻¹ s⁻¹. Besides, in data set [3], the Km was determined as 7800 ± 1000 µM, the kcat amounted to 0.4 ± 0.02 s⁻¹ and the kcat/Km is 51 M⁻¹ s⁻¹.
